According to US20240132578A1:

What was measured:
Assay in all cases: cell-based or functional assay
[1] = biological target: HIV-1 envelope glycoprotein (Env) of isolate LAVIC_18 (HIV-1)
[2] = biological target: HIV-1 isolate 94UG114 envelope glycoprotein (Env), clade D, on pseudovirus (HIV-1)
[3] = biological target: HIV-1 envelope glycoprotein (Env) of isolate MGRM-C-013 (HIV-1)
[4] = biological target: HIV-1 Env of isolate 93UG077 (clade A pseudovirus) (HIV-1)
[5] = biological target: HIV-1 Env of isolate 92RW020 (Clade A) (HIV-1)
[6] = biological target: HIV-1 Env of isolate MGRM-D-029 (clade D pseudovirus) (HIV-1)
[7] = biological target: HIV-1 92TH021 envelope (Env) on pseudovirus (HIV-1)
[8] = biological target: HIV-1 IAVI-C3 envelope (Env) on pseudovirus (HIV-1)
[9] = biological target: HIV-1 Env of isolate MGRM-D-012 (clade D pseudovirus) (HIV-1)
[10] = biological target: HIV-1 Env of isolate MGRM-Chronic-B-001, clade B (HIV-1)
[11] = biological target: HIV-1 Env of isolate MGRM-D-022 (clade D pseudovirus) (HIV-1)
[12] = biological target: HIV-1 envelope glycoprotein (Env) of isolate MGRM-C-004 (HIV-1)
[13] = biological target: HIV-1 envelope glycoprotein (Env) of isolate LAVI_C22 (HIV-1)
[14] = biological target: HIV-1 Env of isolate MGRM-A-012 (clade A pseudovirus) (HIV-1)
[15] = biological target: HIV-1 92TH021 Env (pseudovirus) (HIV-1)
[16] = biological target: HIV-1 Env of pseudovirus isolate APV-17 (clade B) (HIV-1)
[17] = biological target: HIV-1 Env of isolate MGRM-C-015 (subtype C), on pseudovirus (HIV-1)
[18] = biological target: HIV-1 Env of isolate MGRM-D-008 (HIV-1)
[19] = biological target: HIV-1 Env of isolate MG RM-A-005 (pseudovirus) (HIV-1)
[20] = biological target: HIV-1 Env of isolate MG RM-A-010 (pseudovirus) (HIV-1)
[21] = biological target: HIV-1 Env of isolate MGRM-G-015 (subtype G) (HIV-1)
[22] = biological target: HIV-1 envelope glycoprotein (Env) of isolate MG RM-AG-009 (HIV-1)
[23] = biological target: HIV-1 Env of pseudovirus MGRM-D-020 (HIV-1)
[24] = biological target: HIV-1 Env of pseudovirus MGRM-F1-023 (HIV-1)

Sequence of 1443_C16 (PG16) (TCN-116) (antibody) (VH): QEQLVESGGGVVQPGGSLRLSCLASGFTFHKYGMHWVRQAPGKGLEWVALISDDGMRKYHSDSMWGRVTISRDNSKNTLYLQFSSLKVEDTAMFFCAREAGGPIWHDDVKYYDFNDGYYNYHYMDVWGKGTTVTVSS
Sequence of 1443_C16 (PG16) (TCN-116) (antibody) (VL): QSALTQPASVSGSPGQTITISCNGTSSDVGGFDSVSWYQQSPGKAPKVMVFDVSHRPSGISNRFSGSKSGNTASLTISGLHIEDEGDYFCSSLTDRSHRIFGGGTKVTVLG
Sequence of PGT-145 (4995_P16) (antibody) (VH): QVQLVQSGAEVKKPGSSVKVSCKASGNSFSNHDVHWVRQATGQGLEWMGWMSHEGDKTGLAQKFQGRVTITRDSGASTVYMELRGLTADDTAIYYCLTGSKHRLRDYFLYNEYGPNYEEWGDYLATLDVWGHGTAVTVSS
Sequence of PGT-145 (4995_P16) (antibody) (VL): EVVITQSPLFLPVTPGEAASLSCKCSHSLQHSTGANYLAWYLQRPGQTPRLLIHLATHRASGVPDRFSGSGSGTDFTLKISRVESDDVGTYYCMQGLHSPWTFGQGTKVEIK
Sequence of PGT-143 (4980_N08) (antibody) (VH): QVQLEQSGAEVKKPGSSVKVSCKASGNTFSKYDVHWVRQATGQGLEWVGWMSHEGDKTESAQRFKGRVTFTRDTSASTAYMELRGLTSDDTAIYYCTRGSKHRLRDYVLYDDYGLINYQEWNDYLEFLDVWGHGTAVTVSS
Sequence of PGT-143 (4980_N08) (antibody) (VL): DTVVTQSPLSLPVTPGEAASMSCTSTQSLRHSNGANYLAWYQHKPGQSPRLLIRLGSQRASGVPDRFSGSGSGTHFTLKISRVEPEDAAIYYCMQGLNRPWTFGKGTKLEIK
Sequence of PGT-142 (4995_E20) (antibody) (VH): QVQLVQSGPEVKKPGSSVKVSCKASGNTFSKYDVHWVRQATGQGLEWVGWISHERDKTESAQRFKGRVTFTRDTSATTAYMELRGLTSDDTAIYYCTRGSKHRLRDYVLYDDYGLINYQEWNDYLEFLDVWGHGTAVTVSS
Sequence of PGT-142 (4995_E20) (antibody) (VL): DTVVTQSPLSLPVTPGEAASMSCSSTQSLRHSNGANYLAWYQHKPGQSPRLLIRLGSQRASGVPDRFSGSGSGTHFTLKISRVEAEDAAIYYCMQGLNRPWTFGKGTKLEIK
Sequence of PGT-141 (4964_G22; 4993_K13) (antibody) (VH): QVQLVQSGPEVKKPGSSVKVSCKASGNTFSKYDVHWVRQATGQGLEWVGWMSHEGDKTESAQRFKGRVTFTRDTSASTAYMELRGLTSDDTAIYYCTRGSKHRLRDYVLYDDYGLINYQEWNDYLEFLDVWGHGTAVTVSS
Sequence of PGT-144 (4970_K22) (antibody) (VH): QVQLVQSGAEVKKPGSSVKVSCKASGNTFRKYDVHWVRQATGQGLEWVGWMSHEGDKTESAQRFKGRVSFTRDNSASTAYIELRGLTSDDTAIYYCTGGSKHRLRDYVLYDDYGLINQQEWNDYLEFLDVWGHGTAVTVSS
Sequence of PGT-144 (4970_K22) (antibody) (VL): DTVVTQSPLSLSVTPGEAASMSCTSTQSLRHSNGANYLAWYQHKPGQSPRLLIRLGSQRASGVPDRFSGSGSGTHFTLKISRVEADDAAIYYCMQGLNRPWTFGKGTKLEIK

Substance	IC50 (µg/ml), pseudovirus neutralization [1]	IC50 (µg/ml), pseudovirus neutralization [2]	IC50 (µg/ml), pseudovirus neutralization [3]	IC50 (µg/ml), pseudovirus neutralization [4]	IC90 (neutralization of pseudovirus) [5]	IC50, pseudovirus neutralization [6]	neutralization IC50 [7]	neutralization IC50 [8]	IC50, pseudovirus neutralization [9]	IC50 (µg/ml), pseudovirus neutralization [10]	IC50, pseudovirus neutralization [11]	IC50 (µg/ml), pseudovirus neutralization [12]	IC50 (µg/ml), pseudovirus neutralization [13]	IC50 (µg/ml), pseudovirus neutralization [14]	IC50 [22]	IC50, pseudovirus neutralization [23]	IC50, pseudovirus neutralization [24]	further results
2F5 (antibody)	> 50 µg/mL	> 50 µg/mL	18.4 µg/mL	3.3 µg/mL	27.7 µg/mL	> 50 µg/mL	1.51 µg/mL	> 50 µg/mL	1.7 µg/mL	0.55 µg/mL	8.45 µg/mL	> 50 µg/mL	> 50 µg/mL	2.36 µg/mL	–	–	–	–
2G12 (antibody)	> 50 µg/mL	13.9 µg/mL	> 50 µg/mL	> 50 µg/mL	6.23 µg/mL	> 50 µg/mL	> 50 µg/mL	> 50 µg/mL	> 50 µg/mL	0.08 µg/mL	> 50 µg/mL	> 50 µg/mL	> 50 µg/mL	> 50 µg/mL	–	–	–	IC50 (µg/ml), pseudovirus neutralization [15]: > 50 µg/mL
4E10 (antibody)	> 50 µg/mL	9.72 µg/mL	2.1 µg/mL	10.6 µg/mL	36.1 µg/mL	5.3 µg/mL	1.9 µg/mL	5 µg/mL	1.13 µg/mL	1.46 µg/mL	16.9 µg/mL	24.2 µg/mL	2.02 µg/mL	4.27 µg/mL	–	–	–	IC50 (µg/ml), pseudovirus neutralization [15]: 1.17 µg/mL
1443_C16 (PG16) (TCN-116) (antibody)	0.02 µg/mL	> 50 µg/mL	> 50 µg/mL	> 50 µg/mL	> 50 µg/mL	> 50 µg/mL	0.127 µg/mL	14.8 µg/mL	0.35 µg/mL	> 50 µg/mL	> 50 µg/mL	5.09 µg/mL	0.02 µg/mL	20.7 µg/mL	–	–	–	IC50 (µg/ml), pseudovirus neutralization [15]: 0.1 µg/mL
1495_C14 (PGC14) (antibody)	> 50 µg/mL	> 50 µg/mL	> 50 µg/mL	> 50 µg/mL	–	> 50 µg/mL	> 50 µg/mL	> 50 µg/mL	> 50 µg/mL	> 50 µg/mL	> 50 µg/mL	> 50 µg/mL	25 µg/mL	> 50 µg/mL	–	–	–	IC50 (µg/ml), pseudovirus neutralization [15]: > 50 µg/mL
4995_E20 (PGT-142) (antibody)	–	–	–	–	–	–	–	–	–	–	–	–	–	–	–	–	–	IC50, pseudovirus neutralization [16]: 0.628 µg/mL; IC50, single-round pseudovirus neutralization [17]: 0.038 µg/mL; IC50 (µg/mL), pseudovirus neutralization [18]: 0.174 µg/mL; IC50 (µg/mL), single-round pseudovirus neutralization [19]: 9.7 µg/mL; IC50 (µg/mL), single-round pseudovirus neutralization [20]: 0.015 µg/mL; IC50 (µg/mL), pseudovirus neutralization [21]: > 50 µg/mL
4995_P16 (PGT-145) (antibody)	–	–	–	–	–	–	–	–	–	–	–	–	–	–	–	–	–	IC50, pseudovirus neutralization [16]: 0.488 µg/mL; IC50, single-round pseudovirus neutralization [17]: 0.12 µg/mL; IC50 (µg/mL), pseudovirus neutralization [18]: 0.025 µg/mL; IC50 (µg/mL), single-round pseudovirus neutralization [19]: 0.128 µg/mL; IC50 (µg/mL), single-round pseudovirus neutralization [20]: 0.028 µg/mL; IC50 (µg/mL), pseudovirus neutralization [21]: 10.5 µg/mL
PGT-141 (4964_G22; 4993_K13) (antibody)	–	–	–	–	–	–	–	–	–	–	–	–	–	–	> 50 µg/mL	> 50 µg/mL	0.307 µg/mL	–
PGT-142 (4995_E20) (antibody)	–	–	–	–	–	–	–	–	–	–	–	–	–	–	> 50 µg/mL	> 50 µg/mL	0.602 µg/mL	–
PGT-143 (4980_N08) (antibody)	–	–	–	–	–	–	–	–	–	–	–	–	–	–	> 50 µg/mL	> 50 µg/mL	0.972 µg/mL	–
PGT-144 (4970_K22) (antibody)	–	–	–	–	–	–	–	–	–	–	–	–	–	–	> 50 µg/mL	> 50 µg/mL	1.16 µg/mL	–
PGT-145 (4995_P16) (antibody)	–	–	–	–	–	–	–	–	–	–	–	–	–	–	> 50 µg/mL	10 µg/mL	5.88 µg/mL	–
VRC01 (antibody)	–	–	–	–	–	–	–	–	–	–	–	–	–	–	> 50 µg/mL	0.192 µg/mL	0.392 µg/mL	IC50, pseudovirus neutralization [16]: 0.477 µg/mL; IC50, single-round pseudovirus neutralization [17]: 1.57 µg/mL; IC50 (µg/mL), pseudovirus neutralization [18]: 0.854 µg/mL; IC50 (µg/mL), single-round pseudovirus neutralization [19]: 0.095 µg/mL; IC50 (µg/mL), single-round pseudovirus neutralization [20]: 0.325 µg/mL; IC50 (µg/mL), pseudovirus neutralization [21]: 0.548 µg/mL
b12 (antibody)	> 50 µg/mL	> 50 µg/mL	> 50 µg/mL	47 µg/mL	> 50 µg/mL	> 50 µg/mL	9.99 µg/mL	5 µg/mL	0.13 µg/mL	0.75 µg/mL	17.6 µg/mL	5.46 µg/mL	7.64 µg/mL	> 50 µg/mL	–	–	–	–
